From patent US20150232570A1 (ONCOMED PHARMACEUTICALS, published 2015)

T1: recombinant human NOTCH1 protein (human, UniProt P46531 1426-1731, limits assumed)
T1 construct: NOTCH1 proteins'
T1 sequence (looked up): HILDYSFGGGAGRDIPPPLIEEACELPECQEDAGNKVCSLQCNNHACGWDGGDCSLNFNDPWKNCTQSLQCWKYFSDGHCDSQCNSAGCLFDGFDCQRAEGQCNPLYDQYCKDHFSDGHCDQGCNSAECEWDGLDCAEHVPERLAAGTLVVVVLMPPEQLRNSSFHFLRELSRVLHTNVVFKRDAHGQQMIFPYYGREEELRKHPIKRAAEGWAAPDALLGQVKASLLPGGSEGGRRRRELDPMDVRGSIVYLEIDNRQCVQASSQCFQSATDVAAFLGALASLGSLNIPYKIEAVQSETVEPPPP

B1: murine monoclonal antibody 52M51 (antibody, mouse IgG1, V domains shown)
VH: QVQLQQSGAELMKPGASVKISCKAAGYTMRGYWIEWIKQRPGHGLEWIGQILPGTGRTNYNEKFKGKATFTADTSSNTANMQLSSLTSEDSAVYYCARFDGNYGYYAMDYWGQGSSVTVSS
VL: QAVVTQESALTTSPGETVTLTCRSSTGAVTTSNYANWVQEKPDHLFTGLIGGTNNRAPGVPARFSGSLIGDKAALTITGAQTEDEAIYFCALWYSNHWVFGGGTKLTVLG
notes: Mouse antibody purified from hybridoma supernatant; also called 52M51 anti-NOTCH1 antibody; ATCC PTA-9405
B2: humanized antibody 52M51-H4L3 (antibody, human IgG2, lambda, V domains shown)
VH: QVQLVQSGAEVKKPGASVKISCKVSGYTLRGYWIEWVRQAPGKGLEWIGQILPGTGRTNYNEKFKGRVTMTADTSTDTAYMELSSLRSEDTAVYYCARFDGNYGYYAMDYWGQGTTVTVSS
VL: SQAVVTQEPSLTVSPGGTVTLTCRSSTGAVTTSNYANWFQQKPGQAPRTLIGGTNNRAPGVPARFSGSLLGGKAALTLSGAQPEDEAEYYCALWYSNHWVFGGGTKLTVLG
notes: Human IgG2 heavy chain and lambda (IgLC1) light chain; also called OMP-52M51; ATCC PTA-9549
B3: humanized antibody 52M51-H4L4 (antibody, human IgG2, lambda, V domains shown)
VH: QVQLVQSGAEVKKPGASVKISCKVSGYTLRGYWIEWVRQAPGKGLEWIGQILPGTGRTNYNEKFKGRVTMTADTSTDTAYMELSSLRSEDTAVYYCARFDGNYGYYAMDYWGQGTTVTVSS
VL: SQTVVTQEPSFSVSPGGTVTLTCRSSTGAVTTSNYANWYQQTPGQAPRTLIGGTNNRAPGVPDRFSGSILGNKAALTITGAQADDESDYYCALWYSNHWVFGGGTKLTVLG
notes: Human IgG2 heavy chain and lambda (IgLC1) light chain

These binders were tested against T1, recombinant human NOTCH1 protein (assay: SPR (Biacore 2000), NOTCH1 protein amine-coupled to chip, IgG injected).
Description: The affinities for human and mouse NOTCH11 were determined using a Biacore 2000 instrument. Briefly, recombinant human and mouse NOTCH1 proteins were immobilized on a CMS chip using standard amine based chemistry (NHS/EDC). Different antibody concentrations were injected over the protein surfaces and kinetic data were collected over time. The data was fit using the simultaneous global fit equation to yield dissociation constants (KD, nM) for each NOTCH1 protein (Table 2).
For B1, the Kd was 2.86 nM.
Binder B2 has a Kd of 4.33 nM.
In the case of B3, the Kd is reported as 7.35 nM.
